Reference: patent publication US20220235109A1 (CUGENE, published 2022)
Changes are numbered by the printed parent chain. Names and notes keep the numbering of the source.

T1: IL-2Rβγ on human CD8+ T cells, NK cells and CD4+ T cells (human, UniProt P14784 27-551; P31785 23-369)
T1 sequence (looked up) 1: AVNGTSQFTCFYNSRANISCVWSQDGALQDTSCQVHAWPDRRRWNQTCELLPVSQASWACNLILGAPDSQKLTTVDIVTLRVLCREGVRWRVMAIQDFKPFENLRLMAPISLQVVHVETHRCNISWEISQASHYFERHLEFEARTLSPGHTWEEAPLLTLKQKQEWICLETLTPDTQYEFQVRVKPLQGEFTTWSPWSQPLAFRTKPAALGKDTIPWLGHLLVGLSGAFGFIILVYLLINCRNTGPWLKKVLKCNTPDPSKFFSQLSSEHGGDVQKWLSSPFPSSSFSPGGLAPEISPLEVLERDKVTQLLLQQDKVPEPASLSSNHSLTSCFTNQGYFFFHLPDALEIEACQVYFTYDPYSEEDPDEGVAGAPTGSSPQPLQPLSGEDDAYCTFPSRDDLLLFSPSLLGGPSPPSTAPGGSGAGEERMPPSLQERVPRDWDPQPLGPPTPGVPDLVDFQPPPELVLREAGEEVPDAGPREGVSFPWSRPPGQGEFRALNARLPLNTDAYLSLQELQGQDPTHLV
T1 sequence (looked up) 2: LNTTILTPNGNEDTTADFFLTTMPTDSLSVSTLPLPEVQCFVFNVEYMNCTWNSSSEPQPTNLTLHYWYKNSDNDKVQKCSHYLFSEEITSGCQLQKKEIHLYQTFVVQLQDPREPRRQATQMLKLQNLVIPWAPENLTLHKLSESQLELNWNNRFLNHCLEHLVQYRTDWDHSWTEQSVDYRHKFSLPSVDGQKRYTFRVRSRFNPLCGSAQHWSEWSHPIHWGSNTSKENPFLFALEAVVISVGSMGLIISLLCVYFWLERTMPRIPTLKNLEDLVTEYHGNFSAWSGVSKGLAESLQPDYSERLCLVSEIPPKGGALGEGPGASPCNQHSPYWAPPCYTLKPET

T2: recombinant IL-2Rβγ heterodimer (human)
T2 construct: IL-2Rβ ECD at the N-terminus of Fc hole chain, γc ECD at the N-terminus of Fc knob chain; also called recombinant IL-2Rβγ protein; dimeric IL-2Rβγ receptor
T2 chain 1: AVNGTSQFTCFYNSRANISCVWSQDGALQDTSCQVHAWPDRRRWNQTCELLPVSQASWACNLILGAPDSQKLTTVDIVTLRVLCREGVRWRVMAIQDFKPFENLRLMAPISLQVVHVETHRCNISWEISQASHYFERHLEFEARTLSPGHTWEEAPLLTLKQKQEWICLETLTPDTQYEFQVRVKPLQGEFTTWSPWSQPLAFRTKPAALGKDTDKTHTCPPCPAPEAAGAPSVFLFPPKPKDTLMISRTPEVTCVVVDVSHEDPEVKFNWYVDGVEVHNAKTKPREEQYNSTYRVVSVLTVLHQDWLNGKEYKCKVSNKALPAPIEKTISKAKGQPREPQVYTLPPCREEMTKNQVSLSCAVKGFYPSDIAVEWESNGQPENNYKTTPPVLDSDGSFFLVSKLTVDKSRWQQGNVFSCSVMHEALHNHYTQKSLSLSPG
T2 chain 2: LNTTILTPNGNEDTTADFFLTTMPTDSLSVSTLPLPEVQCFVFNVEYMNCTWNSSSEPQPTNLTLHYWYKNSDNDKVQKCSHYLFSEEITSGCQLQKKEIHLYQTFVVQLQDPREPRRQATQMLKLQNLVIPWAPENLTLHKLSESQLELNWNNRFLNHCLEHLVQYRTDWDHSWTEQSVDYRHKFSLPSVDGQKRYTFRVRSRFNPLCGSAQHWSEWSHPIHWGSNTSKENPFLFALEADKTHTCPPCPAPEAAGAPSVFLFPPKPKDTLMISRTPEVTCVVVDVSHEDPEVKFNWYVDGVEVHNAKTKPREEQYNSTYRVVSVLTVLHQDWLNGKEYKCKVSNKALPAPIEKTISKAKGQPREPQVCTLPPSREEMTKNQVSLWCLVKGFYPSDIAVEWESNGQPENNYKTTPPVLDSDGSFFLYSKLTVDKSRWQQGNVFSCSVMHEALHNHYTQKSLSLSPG

T3: IL-2Rα-ECD (human, UniProt P01589 22-240)
T3 construct: coated on ELISA plates at 0.1 µg/well; also called CD25; receptor subunit α
T3 sequence: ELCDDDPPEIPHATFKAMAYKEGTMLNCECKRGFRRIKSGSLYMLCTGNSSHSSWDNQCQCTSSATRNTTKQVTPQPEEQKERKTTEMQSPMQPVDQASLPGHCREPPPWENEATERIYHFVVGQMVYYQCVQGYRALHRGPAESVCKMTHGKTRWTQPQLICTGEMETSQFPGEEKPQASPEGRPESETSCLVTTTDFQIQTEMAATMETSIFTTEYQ

T4: IL-2Rα (CD25) on human CD4+ Treg cells (human, UniProt P01589 22-272)
T4 sequence (looked up): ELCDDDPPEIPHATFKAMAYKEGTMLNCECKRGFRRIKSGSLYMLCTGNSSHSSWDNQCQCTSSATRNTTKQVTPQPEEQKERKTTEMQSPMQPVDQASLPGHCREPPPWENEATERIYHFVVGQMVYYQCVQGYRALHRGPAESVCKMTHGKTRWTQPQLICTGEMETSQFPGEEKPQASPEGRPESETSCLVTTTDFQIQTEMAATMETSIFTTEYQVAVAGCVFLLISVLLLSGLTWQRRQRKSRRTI

B1: P-0732 (Fc fusion)
chain: DKTHTCPPCPAPEAAGAPSVFLFPPKPKDTLMISRTPEVTCVVVDVSHEDPEVKFNWYVDGVEVHNAKTKPREEQYNSTYRVVSVLTVLHQDWLNGKEYKCKVSNKALPAPIEKTISKAKGQPREPQVCTLPPSREEMTKNQVSLWCLVKGFYPSDIAVEWESNGQPENNYKTTPPVLDSDGSFFLYSKLTVDKSRWQQGNVFSCSVMHEALHNHYTQKSLSLSPGGGGSGGGSAPTSSSTKKTQLQLEHLLLDLQMILNGINNYKNPKLTRMLTFKFYMPKKATELKHLQCLEEELKRLEEVLNLAQSKNFHLRPRDLISNINVIVLELKGSETTFMCEYADETATIVEFLNRWITFIESIISTLT
Fc: DKTHTCPPCPAPEAAGAPSVFLFPPKPKDTLMISRTPEVTCVVVDVSHEDPEVKFNWYVDGVEVHNAKTKPREEQYNSTYRVVSVLTVLHQDWLNGKEYKCKVSNKALPAPIEKTISKAKGQPREPQVYTLPPCREEMTKNQVSLSCAVKGFYPSDIAVEWESNGQPENNYKTTPPVLDSDGSFFLVSKLTVDKSRWQQGNVFSCSVMHEALHNHYTQKSLSLSPG
B2: P-0761 (Fc fusion)
chain 1: B1 chain with L253Y, E360Q
chain 2: B1 Fc
notes: knob chain carries the IL-2 variant; hole-Fc; monovalent; also called IL-2 L19Y/P65R/S125I monovalent Fc fusion
B3: P-0765 (Fc fusion)
chain 1: B1 chain with F276A, R299A, E360Q
chain 2: B1 Fc
notes: knob chain carries the IL-2 variant; hole-Fc; monovalent; also called IL-2 F42A/P65A/S125I monovalent Fc fusion
B4: P-0702 (Fc fusion)
chain 1: B1 chain with F276A, E296F, R299P, E360Q
chain 2: B1 Fc
notes: knob chain carries the IL-2 variant; hole-Fc; monovalent; also called IL-2 F42A/E62F/S125I monovalent Fc fusion
B5: P-0766 (Fc fusion)
chain 1: B1 chain with F276A, E296A, R299P, E360Q
chain 2: B1 Fc
notes: knob chain carries the IL-2 variant; hole-Fc; monovalent; also called IL-2 F42A/E62A/S125I monovalent Fc fusion
B6: P-0767 (Fc fusion)
chain 1: B1 chain with F276A, E296H, R299P, E360Q
chain 2: B1 Fc
notes: knob chain carries the IL-2 variant; hole-Fc; monovalent; also called IL-2 F42A/E62H/S125I monovalent Fc fusion
B7: P-0703 (Fc fusion)
chain 1: B1 chain with F276A, R299H, E360Q
chain 2: B1 Fc
notes: knob chain carries the IL-2 variant; hole-Fc; monovalent; also called IL-2 F42A/P65H/S125I monovalent Fc fusion
B8: P-0837 (antibody, mouse IgG1, kappa)
heavy 1: EVQLQESGPGLVKPSQSLSLTCSVTGYSITSSYRWNWIRKFPGNRLEWMGYINSAGISNYNPSLKRRISITRDTSKNQFFLQVNSVTTEDAATYYCARSDNMGTTPFTYWGQGTLVTVSSAKTTPPSVYPLAPGSAAQTNSMVTLGCLVKGYFPEPVTVTWNSGSLSSGVHTFPAVLQSDLYTLSSSVTVPSSTWPSQTVTCNVAHPASSTKVDKKIVPRDCGCKPCICTVPEVSSVFIFPPKPKDVLTITLTPKVTCVVVAISKDDPEVQFSWFVDDVEVHTAQTKPREEQINSTFRSVSELPIMHQDWLNGKEFKCRVNSAAFGAPIEKTISKTKGRPKAPQVYTIPPPKKQMAKDKVSLTCMITNFFPEDITVEWQWNGQPAENYKNTQPIMKTDGSYFVYSKLNVQKSNWEAGNTFTCSVLHEGLHNHHTEKSLSHSPG
heavy 2: not shown
light: DIVMTQGTLPNPVPSGESVSITCRSSKSLLYSDGKTYLNWYLQRPGQSPQLLIYWMSTRASGVSDRFSGSGSGTDFTLKISGVEAEDVGIYYCQQGLEFPTFGGGTKLELKRTDAAPTVSIFPPSSEQLTSGGASVVCFLNNFYPRDINVKWKIDGSERQNGVLNSWTDQDSKDSTYSMSSTLTLTKDEYERHNSYTCEATHKTSTSPIVKSFNRNEC
B9: P-0782 (antibody, mouse IgG1, kappa)
heavy 1: B8 heavy 1
heavy 2: not shown
light: B8 light
B10: P-0838 (antibody, mouse IgG1, kappa)
heavy 1: B8 heavy 1
heavy 2: not shown
light: B8 light

Legend:
[1] = target: T1, IL-2Rβγ on human CD8+ T cells, NK cells …; experiment: cell-based or functional assay
[2] = target: T2, recombinant IL-2Rβγ heterodimer; experiment: ELISA, IL-2Rβγ-Fc heterodimer coated
Method: After overnight incubation at 4° C. and blocking with 1% BSA, 3-fold serial dilutions of IL-2 Fc fusion proteins starting at 10 nM were added to each well at 100 μl/well. […] Subsequently, 100 μl/well of streptavidin-HRP (1:5000 diluted in diluent) were added to each well and incubated at room temperature for 40 min. Wells were thoroughly aspirated and washed three times with PBS/0.05% Tween-20 following each step. Finally, 100 μl TMB substrate was added to each well; the plate was developed at room temperature in the dark for 10 minutes, and 100 μl/well of stop solution (2N Sulfuric acid, Ricca Chemical) was added. Absorbance was determined at 450 nm and curves were fit using Prism software (GraphPad).

IL-2Rα-ECD = target: T3, IL-2Rα-ECD; experiment: ELISA, IL-2Rα-ECD coated
Method: A panel of IL-2 muteins was expressed as C-terminal fusions to the Fc homodimer of Fc heterodimer and screened for binding to IL-2Rα in enzyme-linked immunosorbent assay (ELISA). Briefly, IL-2Rα-ECD (SEQ ID NO: 5) was coated onto the wells of Nunc Maxisorp 96-well microplates at 0.1 μg/well. After overnight incubation at 4° C. and blocking with superblock (Thermo Fisher), 3-fold serial dilutions of IL-2 Fc fusion proteins starting at 100 nM were added to each well at 100 μI/well. Following one-hour incubation at room temperature, 100 μl/well of goat anti-human IgG Fc-HRP (1:5000 diluted in diluent) were added to each well and incubated at room temperature for 1 hour. Wells were thoroughly aspirated and washed three times with PBS/0.05% Tween-20 following each step. Finally, 100 μl TMB substrate was added to each well; the plate was developed at room temperature in the dark for 10 minutes, and 100 μl/well of stop solution (2N Sulfuric acid, Ricca Chemical) was added. Absorbance was determined at 450 nm and curves were fit using Prism software (Graph Pad).

[3] = target: T4, IL-2Rα (CD25) on human CD4+ Treg cells; experiment: cell-based or functional assay

Binder	Binding EC50 vs P-0689 (IL-2Rα-ECD)	binding result (IL-2Rα-ECD)	pSTAT5 EC50 in Treg cells (human PBMC) [3]	other results
B1	–	–	–	Ki67 expression on human CD8+ T cells (EC50 against P-0704) [1]: > 100 fold
B2	–	–	–	binding result [2]: binds
B3	6.8 fold (ratio of EC50s)	–	–	–
B4	> 500 fold (ratio of EC50s)	no binding	–	–
B5	> 500 fold (ratio of EC50s)	no binding	–	–
B6	> 500 fold (ratio of EC50s)	no binding	–	–
B7	> 500 fold (ratio of EC50s)	no binding	–	–
B8	–	–	0.45 pM	–
B9	–	–	4.5 nM	pSTAT5 EC50 in CD8+ T cells (human PBMC) [1]: 4.6 nM; pSTAT5 EC50 in Treg cells, fold against P-0837 [3]: 10000 fold
B10	–	–	0.36 nM	pSTAT5 EC50 in CD8+ T cells (human PBMC) [1]: 4.6 nM; pSTAT5 EC50 in Treg cells, fold against P-0837 [3]: 800 fold
